The text below walks through data of IntAct's records for PubMed 23746845.

First the molecules themselves.
B1: Telomere length regulator protein RIF1 (Saccharomyces cerevisiae), P29539 (parent)
chain: MSKDFSDKKKHTIDRIDQHILRRSQHDNYSNGSSPWMKTNLPPPSPQAHMHIQSDLSPTPKRRKLASSSDCENKQFDLSAINKNLYPEDTGSRLMQSLPELSASNSDNVSPVTKSVAFSDRIESSPIYRIPGSSPKPSPSSKPGKSILRNRLPSVRTVSDLSYNKLQYTQHKLHNGNIFTSPYKETRVNPRALEYWVSGEIHGLVDNESVSEFKEIIEGGLGILRQESEDYVARRFEVYATFNNIIPILTTKNVNEVDQKFNILIVNIESIIEICIPHLQIAQDTLLSSSEKKNPFVIRLYVQIVRFFSAIMSNFKIVKWLTKRPDLVNKLKVIYRWTTGALRNENSNKIIITAQVSFLRDEKFGTFFLSNEEIKPIISTFTEIMEINSHNLIYEKLLLIRGFLSKYPKLMIETVTSWLPGEVLPRIIIGDEIYSMKILITSIVVLLELLKKCLDFVDEHERIYQCIMLSPVCETIPEKFLSKLPLNSYDSANLDKVTIGHLLTQQIKNYIVVKNDNKIAMDLWLSMTGLLYDSGKRVYDLTSESNKVWFDLNNLCFINNHPKTRLMSIKVWRIITYCICTKISQKNQEGNKSLLSLLRTPFQMTLPYVNDPSAREGIIYHLLGVVYTAFTSNKNLSTDMFELFWDHLITPIYEDYVFKYDSIHLQNVLFTVLHLLIGGKNADVALERKYKKHIHPMSVIASEGVKLKDISSLPPQIIKREYDKIMKVVFQAVEVAISNVNLAHDLILTSLKHLPEDRKDQTHLESFSSLILKVTQNNKDTPIFRDFFGAVTSSFVYTFLDLFLRKNDSSLVNFNIQISKVGISQGNMTLDLLKDVIRKARNETSEFLIIEKFLELDDKKTEVYAQNWVGSTLLPPNISFREFQSLANIVNKVPNENSIENFLDLCLKLSFPVNLFTLLHVSMWSNNNFIYFIQSYVSKNENKLNVDLITLLKTSLPGNPELFSGLLPFLRRNKFMDILEYCIHSNPNLLNSIPDLNSDLLLKLLPRSRASYFAANIKLFKCSEQLTLVRWLLKGQQLEQLNQNFSEIENVLQNASDSELEKSEIIRELLHLAMANPIEPLFSGLLNFCIKNNMADHLDEFCGNMTSEVLFKISPELLLKLLTYKEKPNGKLLAAVIEKIENGDDDYILELLEKIIIQKEIQILEKLKEPLLVFFLNPVSSNMQKHKKSTNMLRELVLLYLTKPLSRSAAKKFFSMLISILPPNPNYQTIDMVNLLIDLIKSHNRKFKDKRTYNATLKTIGKWIQESGVVHQGDSSKEIEAIPDTKSMYIPCEGSENKLSNLQRKVDSQDIQVPATQGMKEPPSSIQISSQISAKDSDSISLKNTAIMNSSQQESHANRSRSIDDETLEEVDNESIREIDQQMKSTQLDKNVANHSNICSTKSDEVDVTELHESIDTQSSEVNAYQPIEVLTSELKAVTNRSIKTNPDHNVVNSDNPLKRPSKETPTSENKRSKGHETMVDVLVSEEQAVSPSSDVICTNIKSIANEESSLALRNSIKVETNCNENSLNVTLDLDQQTITKEDGKGQVEHVQRQENQESMNKINSKSFTQDNIAQYKSVKKARPNNEGENNDYACNVEQASPVRNEVPGDGIQIPSGTILLNSSKQTEKSKVDDLRSDEDEHGTVAQEKHQVGAINSRNKNNDRMDSTPIQGTEEESREVVMTEEGINVRLEDSGTCELNKNLKGPLKGDKDANINDDFVPVEENVRDEGFLKSMEHAVSKETGLEEQPEVADISVLPEIRIPIFNSLKMQGSKSQIKEKLKKRLQRNELMPPDSPPRMTENTNINAQNGLDTVPKTIGGKEKHHEIQLGQAHTEADGEPLLGGDGNEDATSREATPSLKVHFFSKKSRRLVARLRGFTPGDLNGISVEERRNLRIELLDFMMRLEYYSNRDNDMN
partner: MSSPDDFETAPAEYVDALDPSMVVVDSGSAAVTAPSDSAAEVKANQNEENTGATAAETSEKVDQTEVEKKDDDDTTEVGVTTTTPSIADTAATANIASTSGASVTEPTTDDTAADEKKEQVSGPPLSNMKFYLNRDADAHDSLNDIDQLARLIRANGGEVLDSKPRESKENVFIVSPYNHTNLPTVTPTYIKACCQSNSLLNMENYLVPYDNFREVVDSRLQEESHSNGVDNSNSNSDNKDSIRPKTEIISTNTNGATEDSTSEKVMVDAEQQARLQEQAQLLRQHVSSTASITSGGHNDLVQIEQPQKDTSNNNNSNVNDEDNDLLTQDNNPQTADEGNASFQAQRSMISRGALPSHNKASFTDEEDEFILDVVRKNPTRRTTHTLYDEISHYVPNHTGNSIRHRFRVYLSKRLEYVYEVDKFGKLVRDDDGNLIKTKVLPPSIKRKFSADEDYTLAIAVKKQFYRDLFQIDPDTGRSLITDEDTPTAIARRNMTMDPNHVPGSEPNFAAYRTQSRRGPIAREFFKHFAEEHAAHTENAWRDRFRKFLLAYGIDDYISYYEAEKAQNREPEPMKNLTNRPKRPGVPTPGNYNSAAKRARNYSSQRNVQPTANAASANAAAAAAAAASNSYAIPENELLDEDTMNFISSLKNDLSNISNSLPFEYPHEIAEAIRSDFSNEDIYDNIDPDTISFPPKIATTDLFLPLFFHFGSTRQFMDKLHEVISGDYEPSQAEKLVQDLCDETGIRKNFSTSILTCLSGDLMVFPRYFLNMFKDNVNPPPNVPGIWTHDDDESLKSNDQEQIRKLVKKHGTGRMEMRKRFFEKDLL
B2: DNA-binding protein RAP1 (Saccharomyces cerevisiae), P11938 (parent)
chain: B1 partner

The variants in one experiment derive from B1. As to conditions: with rap1_yeast RAP1, P11938.
R1895E: the “effect of a mutation on the interaction” value is on record as “decreasing interaction strength”.
Same read-out and setting: then I1762R, with “disrupting interaction strength”.
The same measure, in the same setting: then I1764R, with “disrupting interaction strength”.
Consider I1760R, for which the “effect of a mutation on the interaction” value is on record as “disrupting interaction strength”.
Same read-out and setting: then L1905R, with “disrupting interaction strength”.

Variants of B1 are the subject of the next experiment. The settings on record: with rap1_yeast RAP1, P11938. The source holds these as a separate data set.
Take L1905R: the “effect of a mutation on the interaction” value was “decreasing interaction strength”.

Variants of B2 are the subject of another experiment. As to conditions: with rif1_yeast RIF1, P29539.
Turning to G760R, the “effect of a mutation on the interaction” value is “disrupting interaction strength”.
For A733R, the “effect of a mutation on the interaction” value is given as “disrupting interaction strength”.
